Target: T1, Mouse BAI3 N-terminal domain (NTD) encompassing residues 26-290 (mouse, UniProt Q80ZF8 26-290)
T1 construct: The vector encodes a 3C site, an Fc-tag and a C-terminal His tag after the NTD; the His tag lies after the 3C site and so was probably removed with the Fc; also called BAI3 NTD; BAI3 CUB domain; source: HEK293S GnTI- cells, BacMam virus (pVLAD8L), secreted, purified (Ni2+-NTA, 3C cleavage, SEC); not shown: Fc, C-terminal, cleaved
T1 sequence (looked up): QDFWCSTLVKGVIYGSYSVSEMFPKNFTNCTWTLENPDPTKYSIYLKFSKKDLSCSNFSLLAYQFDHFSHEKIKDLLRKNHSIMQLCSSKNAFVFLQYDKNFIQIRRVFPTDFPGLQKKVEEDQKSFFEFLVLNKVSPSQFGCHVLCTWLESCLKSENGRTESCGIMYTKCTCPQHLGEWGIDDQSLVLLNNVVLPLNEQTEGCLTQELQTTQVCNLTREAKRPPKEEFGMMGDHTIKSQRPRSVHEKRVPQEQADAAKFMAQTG
Test: SEC; purified proteins mixed, size-exclusion chromatography and Coomassie-stained SDS-PAGE of fractions; 1x HBS (10 mM HEPES pH 7.2, 150 mM NaCl) with 2 mM CaCl2
Settings: both partners purified

B1: C1ql3 globular C1q-like domain (residues 122-255) (domain or fragment, mouse, UniProt Q9ESN4 122-255, looked up)
chain: STVPKIAFYAGLKRQHEGYEVLKFDDVVTNLGNHYDPTTGKFTCSIPGIYFFTYHVLMRGGDGTSMWADLCKNNQVRASAIAQDADQNYDYASNSVVLHLEPGDEVYIKLDGGKAHGGNNNKYSTFSGFIIYAD
notes: C1q-like 3 protein (C1ql3), mouse, C1q-like domain, residues 122-255; buffer contained 2 mM CaCl2; The tag is surmised from the Ni-NTA step; also called C1q-like domain trimer of C1ql3; C1ql3 C1q-like domain; source: Expi293F GnTI- cells, transfected (pEG BacMam), purified (Ni2+-NTA, SEC)
Does B1 bind?
Result: binds

Reference: PMC12048575, “Structure of the complex of C1q-like 3 protein with adhesion-GPCR BAI3” (Communications Biology, 2025)
